Laboratory results as given in US20140370558.

Key:
Test in all cases: cell_activity
[1] = system: FAD2_T02_Left_C40 TALEN monomer (synthetic (TAL effector-nuclease fusion)?); conditions: yeast reporter; value of pair with T01_Right_C40 on Target 2
[2] = system: FAD2_T02_Left_C11 TALEN monomer (synthetic (TAL effector-nuclease fusion)?); conditions: yeast reporter; value of pair with T01_Right_C11 on Target 2
[3] = system: FAD2_T03_Left_C11 + FAD2_T03_Right_C11 TALEN pair; conditions: yeast reporter cleavage
[4] = system: FAD2_T02_Left_C40 + FAD2_T01_Right_C40 TALEN pair; conditions: yeast reporter cleavage
[5] = system: FAD2_T02_Left_C11 + FAD2_T01_Right_C11 TALEN pair; conditions: yeast reporter cleavage
[6] = system: FAD2_T04_Left_C40 + FAD2_T03_Right_C40 TALEN pair; conditions: yeast reporter cleavage
[7] = system: FAD2_T04_Left_C11 + FAD2_T03_Right_C11 TALEN pair; conditions: yeast reporter cleavage
[8] = system: FAD2_T01_Left_C40 + FAD2_T01_Right_C40 TALEN pair; conditions: yeast reporter cleavage
[9] = system: FAD2_T03_Left_C40 + FAD2_T03_Right_C40 TALEN pair; conditions: yeast reporter cleavage
[10] = system: FAD2_T01_Left_C11 + FAD2_T01_Right_C11 TALEN pair; conditions: yeast reporter cleavage
[11] = system: FAD2_T03_Right_C11 TALEN monomer (synthetic (TAL effector-nuclease fusion)?); conditions: yeast reporter; value of pair with T03_Left_C11 on Target 3
[12] = system: FAD2_T03_Right_C40 TALEN monomer (synthetic (TAL effector-nuclease fusion)?); conditions: yeast reporter; value of pair with T03_Left_C40 on Target 3
[13] = system: FAD2_T01_Right_C40 TALEN monomer (synthetic (TAL effector-nuclease fusion)?); conditions: yeast reporter; value of pair with T01_Left_C40 on Target 1
[14] = system: FAD2_T01_Right_C11 TALEN monomer (synthetic (TAL effector-nuclease fusion)?); conditions: yeast reporter; value of pair with T01_Left_C11 on Target 1
[15] = system: FAD2_T04_Left_C40 TALEN monomer (synthetic (TAL effector-nuclease fusion)?); conditions: yeast reporter; value of pair with T03_Right_C40 on Target 4
[16] = system: FAD2_T04_Left_C11 TALEN monomer (synthetic (TAL effector-nuclease fusion)?); conditions: yeast reporter; value of pair with T03_Right_C11 on Target 4
[17] = system: FAD2_T03_Left_C11 TALEN monomer (synthetic (TAL effector-nuclease fusion)?); conditions: yeast reporter; value of pair with T03_Right_C11 on Target 3
[18] = system: FAD2_T03_Left_C40 TALEN monomer (synthetic (TAL effector-nuclease fusion)?); conditions: yeast reporter; value of pair with T03_Right_C40 on Target 3
[19] = system: FAD2_T01_Left_C40 TALEN monomer (synthetic (TAL effector-nuclease fusion)?); conditions: yeast reporter; value of pair with T01_Right_C40 on Target 1
[20] = system: FAD2_T01_Left_C11 TALEN monomer (synthetic (TAL effector-nuclease fusion)?); conditions: yeast reporter; value of pair with T01_Right_C11 on Target 1
[21] = left site truncated in Target 3
[22] = left site truncated in Target 1

Sequence | activity (relative to I-SceI) [3] | activity (relative to I-SceI) [4] | activity (relative to I-SceI) [5] | activity (relative to I-SceI) [6] | activity (relative to I-SceI) [7] | activity (relative to I-SceI) [8] | activity (relative to I-SceI) [9] | activity (relative to I-SceI) [10] | also measured
ACATTGCCACCACCTACTTCCACCT (double strand) [FAD2_T02 left half-site] |  |  |  |  |  |  |  |  | activity (relative to I-SceI) [1]: 0.96; activity (relative to I-SceI) [2]: 0.97
ACATTGCCACCACCTACTTCCACCTCCTTCCTCAACCCTTTTCCCTCATTGCATGGCCAATCT (double strand) [FAD2 Target 2] | 0 | 0.96 | 0.97 | 0 | 0 | 0.73 | 0 | 0.87 | 
ACCGTGATGAAGTGTTTGTCCC (double strand) [FAD2_T03/T04 right half-site] |  |  |  |  |  |  |  |  | activity (relative to I-SceI) [11]: 0.65; activity (relative to I-SceI) [12]: 0.63
ATTGCATGGCCAATCT (double strand) [FAD2_T01/T02 right half-site] |  |  |  |  |  |  |  |  | activity (relative to I-SceI) [13]: 0.79; activity (relative to I-SceI) [14]: 0.73
ATTTCTCATGGAAAATAAGCCAT (double strand) [FAD2_T04 left half-site] |  |  |  |  |  |  |  |  | activity (relative to I-SceI) [15]: 0.52; activity (relative to I-SceI) [16]: 0.54
ATTTCTCATGGAAAATAAGCCATCGCCGCCATCACTCCAACACAGGTTCCCTTGACCGTGATGAAGTGTTTGTCCC (double strand) [FAD2 Target 4] | 0.53 | 0 | 0 | 0.52 | 0.54 | 0 | 0.51 | 0 | 
CTCATGGAAAATAAGCCAT (double strand) [FAD2_T03 left half-site] |  |  |  |  |  |  |  |  | activity (relative to I-SceI) [17]: 0.65; activity (relative to I-SceI) [18]: 0.63
CTCATGGAAAATAAGCCATCGCCGCCATCACTCCAACACAGGTTCCCTTGACCGTGATGAAGTGTTTGTCCC (double strand) [FAD2 Target 3] | 0.65 | 0 | 0 |  |  | 0 | 0.63 | 0 | activity (relative to I-SceI) [6, 21]: 0; activity (relative to I-SceI) [7, 21]: 0
GCCACCACCTACTTCCACCTCCT (double strand) [FAD2_T01 left half-site] |  |  |  |  |  |  |  |  | activity (relative to I-SceI) [19]: 0.79; activity (relative to I-SceI) [20]: 0.73
GCCACCACCTACTTCCACCTCCTTCCTCAACCCTTTTCCCTCATTGCATGGCCAATCT (double strand) [FAD2 Target 1] | 0 |  |  | 0 | 0 | 0.79 | 0 | 0.73 | activity (relative to I-SceI) [4, 22]: 0; activity (relative to I-SceI) [5, 22]: 0
